Consider 1 molecule from paper PMC12343972 (Nature Communications, 2025).

This data set addresses T1, Rad50-R1201A (Saccharomyces cerevisiae, UniProt P12753 1-1312, R1201A).
T1 sequence: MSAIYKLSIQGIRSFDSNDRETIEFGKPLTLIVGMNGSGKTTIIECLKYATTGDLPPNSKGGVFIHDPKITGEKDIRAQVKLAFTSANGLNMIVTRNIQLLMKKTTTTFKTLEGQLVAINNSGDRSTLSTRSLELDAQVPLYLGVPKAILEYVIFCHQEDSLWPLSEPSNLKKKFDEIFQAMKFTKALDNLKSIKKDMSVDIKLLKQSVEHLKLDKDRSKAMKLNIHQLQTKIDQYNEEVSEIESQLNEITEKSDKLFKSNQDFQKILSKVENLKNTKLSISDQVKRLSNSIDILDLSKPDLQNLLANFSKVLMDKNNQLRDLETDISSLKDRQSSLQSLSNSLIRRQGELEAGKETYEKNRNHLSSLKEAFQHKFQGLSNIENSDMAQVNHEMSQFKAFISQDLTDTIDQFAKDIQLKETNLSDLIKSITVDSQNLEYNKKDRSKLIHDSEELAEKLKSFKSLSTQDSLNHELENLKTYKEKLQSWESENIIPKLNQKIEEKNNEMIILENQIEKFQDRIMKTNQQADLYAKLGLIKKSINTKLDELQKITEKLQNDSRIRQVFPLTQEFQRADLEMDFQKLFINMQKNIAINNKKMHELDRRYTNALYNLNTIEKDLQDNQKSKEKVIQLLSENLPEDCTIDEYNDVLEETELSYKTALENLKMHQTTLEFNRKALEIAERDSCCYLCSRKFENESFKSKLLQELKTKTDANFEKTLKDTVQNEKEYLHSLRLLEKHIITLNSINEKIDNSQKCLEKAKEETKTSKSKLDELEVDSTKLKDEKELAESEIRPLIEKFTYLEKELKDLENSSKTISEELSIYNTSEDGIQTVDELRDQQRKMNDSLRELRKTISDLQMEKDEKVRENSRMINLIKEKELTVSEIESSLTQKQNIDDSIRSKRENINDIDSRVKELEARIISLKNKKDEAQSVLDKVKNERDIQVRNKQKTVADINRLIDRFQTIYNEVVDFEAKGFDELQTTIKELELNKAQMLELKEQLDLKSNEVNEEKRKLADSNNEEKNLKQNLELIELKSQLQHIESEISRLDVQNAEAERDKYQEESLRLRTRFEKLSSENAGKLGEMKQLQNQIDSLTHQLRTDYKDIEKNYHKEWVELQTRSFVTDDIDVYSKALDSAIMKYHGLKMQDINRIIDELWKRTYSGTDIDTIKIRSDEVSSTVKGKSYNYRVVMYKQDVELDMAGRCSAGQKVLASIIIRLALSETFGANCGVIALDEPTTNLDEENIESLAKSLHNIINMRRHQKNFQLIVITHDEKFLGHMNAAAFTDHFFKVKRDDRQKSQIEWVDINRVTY
The experiment in a line: EMSA. (A gel shift assay detects complexes by their altered migration in electrophoresis.)

B1: 83-mer dsDNA (EMSA) (dsDNA)
DNA 1: TTGATAAGAGGTCATTTTTGCGGATGGCTTAGAGCTTAATTGCTGAATCTGGTGCTGTAGCTCAACATGTTTTAAATATGCAA
DNA 2: TTGCATATTTAAAACATGTTGAGCTACAGCACCAGATTCAGCAATTAAGCTCTAAGCCATCCGCAAAAATGACCTCTTATCAA
Consider B1, for which the binding result is “binds”.
